Experimental data published in patent US20220348663A1 (Y BIOLOGICS, published 2022).

Columns and labels:
[1] = target: T1, rat B7-H3 (#80380-R08H, Sino) (rat, UniProt Q7TPB4 29-244); assay: ELISA on coated Rat B7H3, OD450nm
T1 construct: Bought protein; also called rat B7-H3 antigen
T1 sequence (looked up): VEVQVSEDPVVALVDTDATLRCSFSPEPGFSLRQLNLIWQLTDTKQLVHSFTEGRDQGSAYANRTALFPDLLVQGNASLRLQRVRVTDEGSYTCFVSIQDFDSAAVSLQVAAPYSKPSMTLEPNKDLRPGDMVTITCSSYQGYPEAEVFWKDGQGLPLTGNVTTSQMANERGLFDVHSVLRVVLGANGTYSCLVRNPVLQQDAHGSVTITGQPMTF

[2] = target: T2, Mouse B7-H3 (#50973-M08H, Sino) (mouse, UniProt Q8VE98 29-244); assay: ELISA on coated Mouse B7H3, OD450nm
T2 construct: Bought protein; also called mouse B7-H3 antigen
T2 sequence (looked up): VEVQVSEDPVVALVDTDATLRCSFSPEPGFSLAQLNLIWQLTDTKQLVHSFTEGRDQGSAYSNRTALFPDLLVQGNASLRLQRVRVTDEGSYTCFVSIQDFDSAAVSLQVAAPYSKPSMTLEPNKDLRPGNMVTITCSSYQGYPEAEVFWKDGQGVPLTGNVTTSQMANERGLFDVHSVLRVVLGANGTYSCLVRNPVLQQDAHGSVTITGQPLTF

[3] = target: T3, human B7-H3 antigen (Octet) (human, UniProt Q5ZPR3 29-466, limits assumed); assay: BLI (Octet QK), antibody captured on AHC biosensor, B7-H3 antigen 30-0.24 nM, 1:1 global fit
T3 construct: Soluble antigen in the BLI assay
T3 sequence: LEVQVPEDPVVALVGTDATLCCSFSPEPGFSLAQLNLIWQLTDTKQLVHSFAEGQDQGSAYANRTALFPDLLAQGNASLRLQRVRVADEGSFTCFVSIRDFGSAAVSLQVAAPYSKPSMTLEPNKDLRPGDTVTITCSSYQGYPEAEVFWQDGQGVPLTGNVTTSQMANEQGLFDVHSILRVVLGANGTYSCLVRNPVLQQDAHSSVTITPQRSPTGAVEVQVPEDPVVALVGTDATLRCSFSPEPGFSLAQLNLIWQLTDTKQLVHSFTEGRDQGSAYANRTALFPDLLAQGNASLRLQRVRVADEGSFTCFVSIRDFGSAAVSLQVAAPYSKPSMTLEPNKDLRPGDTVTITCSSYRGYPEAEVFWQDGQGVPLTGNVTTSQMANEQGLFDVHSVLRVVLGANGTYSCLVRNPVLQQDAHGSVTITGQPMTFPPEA

B1: CD276-039C05 (antibody, V domains shown)
VH: QVQLVESGAEVKKPGSSVKVSCKASGGTFSSYAISWVRQAPGQGLEWMGRIIPILGIANYAQKFQGRVTITADKSTSTAYMELSSLRSEDTAVYYCANGGDSSSWYTFDYWGQGTLITVSS
VL: DIQMTQSPSTLSASVGDKLTLTCRASQSISRWLAWYQQKPGKAPKLLIYKASYLQTGVPSRFSGSGTGTEFTLTISSLQPDDFATYYCQQYNTFPLTFAGGTKVEIK
notes: Converted from scFv to IgG form; Parent of the _LS_ light-chain variants
[1]
  binding result: binds
[2]
  binding result: binds

B2: CD276-040F10 (antibody, V domains shown)
VH: QVQLVESGAEVKKPGASVKLSCKASGYTFSSYWMHWVRQAPGQRLEWMGEINPGNGHTNYNEKFKSRVTITVDKSASTAYMELSSLRSEDTAVYYCVADPRRPKVPTALFVYWGQGTLVTVSS
VL: DIQMTQSPSSVSASVGDRVTISCRASQGIGTWLAWYQQKPGKAPRLLIYAASSLDSGVPSRFSASGSGTDFTLTISSLQPEDFATYYCQQAINFPITFGQGTRLEIK
notes: Converted from scFv to IgG form
[3]
  Kd: 60 pM
